Assay results reported in patent publication US20180369322A1 (published 2018).
Numbered stars: 1 amine (or outer) side, 2 acyl side, 3 side chain; on linkers, the order of the positions; unused ones are H or OH. Bridge positions count the residues as written; N and C are the ends. Square brackets hold non-standard residues; d marks the D form. Primed or numbered codes have the meaning given here. Side chains are listed from the residue outwards. * marks the point of attachment. PEG24′ = polyethylene glycol unit with 24 repeats; Trp(7-aza) = N[C@@H](Cc1c[nH]c2ncccc12)C(=O)O; γGlu = O=C(O)[C@H](CCC(=O)[*:2])N[*:1]; Palmitoyl = CCCCCCCCCCCCCCCC(=O)*; NMeD = CN[C@@H](CC(=O)O)C(=O)O; Chg = N[C@H](C(=O)O)C1CCCCC1; Tle = CC(C)(C)[C@H](N)C(=O)O

Tests used:
Experiment in all cases: cell-based or functional assay
[1] = biological target: cloned hERG potassium channel (human, UniProt Q12809 1-1159)
[2] = biological target: rabbit C5 (rabbit)
[3] = biological target: dog C5 (dog)
[4] = biological target: human C5 (human, UniProt P01031 19-1676)
Sequence of human C5 (P01031 19-1676 limits assumed): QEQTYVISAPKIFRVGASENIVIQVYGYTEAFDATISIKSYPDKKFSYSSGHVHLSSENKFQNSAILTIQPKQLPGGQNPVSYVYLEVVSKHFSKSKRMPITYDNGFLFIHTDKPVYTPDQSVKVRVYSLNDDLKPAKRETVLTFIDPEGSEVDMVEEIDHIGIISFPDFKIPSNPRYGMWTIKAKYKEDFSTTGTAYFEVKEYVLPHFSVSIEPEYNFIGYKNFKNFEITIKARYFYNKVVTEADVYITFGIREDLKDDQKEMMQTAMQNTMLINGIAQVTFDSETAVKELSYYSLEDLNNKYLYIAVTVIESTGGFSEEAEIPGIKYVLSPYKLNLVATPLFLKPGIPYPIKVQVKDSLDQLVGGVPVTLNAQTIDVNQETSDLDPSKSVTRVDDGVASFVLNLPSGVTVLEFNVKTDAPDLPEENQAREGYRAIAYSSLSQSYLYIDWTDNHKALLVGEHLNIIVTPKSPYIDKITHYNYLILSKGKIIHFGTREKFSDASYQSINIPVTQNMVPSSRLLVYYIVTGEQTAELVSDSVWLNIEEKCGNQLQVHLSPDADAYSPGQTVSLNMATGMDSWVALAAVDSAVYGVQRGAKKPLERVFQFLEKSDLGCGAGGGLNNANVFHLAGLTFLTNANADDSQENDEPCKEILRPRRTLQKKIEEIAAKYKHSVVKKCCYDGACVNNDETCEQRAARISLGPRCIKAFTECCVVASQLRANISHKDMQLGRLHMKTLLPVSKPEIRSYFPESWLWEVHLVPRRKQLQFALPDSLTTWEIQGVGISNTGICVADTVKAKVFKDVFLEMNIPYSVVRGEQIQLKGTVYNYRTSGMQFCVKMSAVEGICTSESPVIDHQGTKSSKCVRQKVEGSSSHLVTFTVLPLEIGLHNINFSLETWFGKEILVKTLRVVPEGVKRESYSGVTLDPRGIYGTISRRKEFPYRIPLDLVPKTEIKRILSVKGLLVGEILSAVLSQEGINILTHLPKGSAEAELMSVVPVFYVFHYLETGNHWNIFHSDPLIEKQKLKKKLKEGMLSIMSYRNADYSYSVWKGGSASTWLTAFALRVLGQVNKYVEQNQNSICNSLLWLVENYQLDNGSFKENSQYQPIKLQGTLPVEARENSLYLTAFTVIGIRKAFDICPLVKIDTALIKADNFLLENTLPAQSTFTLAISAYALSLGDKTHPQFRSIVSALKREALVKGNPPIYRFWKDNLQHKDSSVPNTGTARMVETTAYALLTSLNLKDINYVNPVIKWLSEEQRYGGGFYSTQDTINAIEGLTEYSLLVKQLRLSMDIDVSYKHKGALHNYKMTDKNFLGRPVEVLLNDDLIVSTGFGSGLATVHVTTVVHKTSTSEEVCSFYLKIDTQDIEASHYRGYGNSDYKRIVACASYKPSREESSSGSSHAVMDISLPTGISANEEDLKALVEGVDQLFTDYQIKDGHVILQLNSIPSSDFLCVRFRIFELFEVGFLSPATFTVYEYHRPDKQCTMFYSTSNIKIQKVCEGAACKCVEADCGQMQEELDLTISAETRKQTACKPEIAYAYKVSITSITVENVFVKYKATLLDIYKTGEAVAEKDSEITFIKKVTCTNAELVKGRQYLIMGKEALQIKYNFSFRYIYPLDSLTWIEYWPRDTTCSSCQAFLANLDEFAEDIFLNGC

Sequence of cloned hERG potassium channel (Q12809 whole entry): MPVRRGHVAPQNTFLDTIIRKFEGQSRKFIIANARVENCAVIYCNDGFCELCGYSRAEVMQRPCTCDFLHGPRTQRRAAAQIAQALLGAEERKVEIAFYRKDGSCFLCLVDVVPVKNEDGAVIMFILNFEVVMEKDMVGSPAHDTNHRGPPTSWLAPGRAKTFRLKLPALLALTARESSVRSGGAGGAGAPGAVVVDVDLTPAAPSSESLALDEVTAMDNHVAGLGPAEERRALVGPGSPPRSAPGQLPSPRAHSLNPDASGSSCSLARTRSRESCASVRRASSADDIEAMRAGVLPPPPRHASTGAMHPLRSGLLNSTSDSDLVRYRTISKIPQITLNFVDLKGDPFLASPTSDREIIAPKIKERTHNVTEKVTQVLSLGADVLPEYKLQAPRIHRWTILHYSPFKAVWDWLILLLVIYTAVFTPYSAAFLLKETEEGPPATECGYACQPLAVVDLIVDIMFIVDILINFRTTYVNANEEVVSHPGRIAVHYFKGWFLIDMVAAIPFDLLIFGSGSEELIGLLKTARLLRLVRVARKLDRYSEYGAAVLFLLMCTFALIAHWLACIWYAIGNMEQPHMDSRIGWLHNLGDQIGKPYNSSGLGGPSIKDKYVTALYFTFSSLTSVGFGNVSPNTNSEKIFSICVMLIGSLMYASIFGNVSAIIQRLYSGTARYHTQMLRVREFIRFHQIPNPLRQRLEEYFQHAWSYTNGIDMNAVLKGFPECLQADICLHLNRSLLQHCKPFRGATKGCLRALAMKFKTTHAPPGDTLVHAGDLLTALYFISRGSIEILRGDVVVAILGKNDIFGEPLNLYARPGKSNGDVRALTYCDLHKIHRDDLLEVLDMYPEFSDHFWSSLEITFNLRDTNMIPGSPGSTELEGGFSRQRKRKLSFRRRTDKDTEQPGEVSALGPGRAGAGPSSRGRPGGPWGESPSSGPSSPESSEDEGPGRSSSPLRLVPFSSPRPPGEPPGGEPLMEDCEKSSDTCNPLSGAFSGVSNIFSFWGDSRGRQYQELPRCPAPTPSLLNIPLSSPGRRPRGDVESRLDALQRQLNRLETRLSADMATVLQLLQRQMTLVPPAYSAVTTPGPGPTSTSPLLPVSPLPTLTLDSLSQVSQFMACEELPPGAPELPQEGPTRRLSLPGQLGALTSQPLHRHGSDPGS
Sequence of dog C5 (dog) (P01031 whole entry): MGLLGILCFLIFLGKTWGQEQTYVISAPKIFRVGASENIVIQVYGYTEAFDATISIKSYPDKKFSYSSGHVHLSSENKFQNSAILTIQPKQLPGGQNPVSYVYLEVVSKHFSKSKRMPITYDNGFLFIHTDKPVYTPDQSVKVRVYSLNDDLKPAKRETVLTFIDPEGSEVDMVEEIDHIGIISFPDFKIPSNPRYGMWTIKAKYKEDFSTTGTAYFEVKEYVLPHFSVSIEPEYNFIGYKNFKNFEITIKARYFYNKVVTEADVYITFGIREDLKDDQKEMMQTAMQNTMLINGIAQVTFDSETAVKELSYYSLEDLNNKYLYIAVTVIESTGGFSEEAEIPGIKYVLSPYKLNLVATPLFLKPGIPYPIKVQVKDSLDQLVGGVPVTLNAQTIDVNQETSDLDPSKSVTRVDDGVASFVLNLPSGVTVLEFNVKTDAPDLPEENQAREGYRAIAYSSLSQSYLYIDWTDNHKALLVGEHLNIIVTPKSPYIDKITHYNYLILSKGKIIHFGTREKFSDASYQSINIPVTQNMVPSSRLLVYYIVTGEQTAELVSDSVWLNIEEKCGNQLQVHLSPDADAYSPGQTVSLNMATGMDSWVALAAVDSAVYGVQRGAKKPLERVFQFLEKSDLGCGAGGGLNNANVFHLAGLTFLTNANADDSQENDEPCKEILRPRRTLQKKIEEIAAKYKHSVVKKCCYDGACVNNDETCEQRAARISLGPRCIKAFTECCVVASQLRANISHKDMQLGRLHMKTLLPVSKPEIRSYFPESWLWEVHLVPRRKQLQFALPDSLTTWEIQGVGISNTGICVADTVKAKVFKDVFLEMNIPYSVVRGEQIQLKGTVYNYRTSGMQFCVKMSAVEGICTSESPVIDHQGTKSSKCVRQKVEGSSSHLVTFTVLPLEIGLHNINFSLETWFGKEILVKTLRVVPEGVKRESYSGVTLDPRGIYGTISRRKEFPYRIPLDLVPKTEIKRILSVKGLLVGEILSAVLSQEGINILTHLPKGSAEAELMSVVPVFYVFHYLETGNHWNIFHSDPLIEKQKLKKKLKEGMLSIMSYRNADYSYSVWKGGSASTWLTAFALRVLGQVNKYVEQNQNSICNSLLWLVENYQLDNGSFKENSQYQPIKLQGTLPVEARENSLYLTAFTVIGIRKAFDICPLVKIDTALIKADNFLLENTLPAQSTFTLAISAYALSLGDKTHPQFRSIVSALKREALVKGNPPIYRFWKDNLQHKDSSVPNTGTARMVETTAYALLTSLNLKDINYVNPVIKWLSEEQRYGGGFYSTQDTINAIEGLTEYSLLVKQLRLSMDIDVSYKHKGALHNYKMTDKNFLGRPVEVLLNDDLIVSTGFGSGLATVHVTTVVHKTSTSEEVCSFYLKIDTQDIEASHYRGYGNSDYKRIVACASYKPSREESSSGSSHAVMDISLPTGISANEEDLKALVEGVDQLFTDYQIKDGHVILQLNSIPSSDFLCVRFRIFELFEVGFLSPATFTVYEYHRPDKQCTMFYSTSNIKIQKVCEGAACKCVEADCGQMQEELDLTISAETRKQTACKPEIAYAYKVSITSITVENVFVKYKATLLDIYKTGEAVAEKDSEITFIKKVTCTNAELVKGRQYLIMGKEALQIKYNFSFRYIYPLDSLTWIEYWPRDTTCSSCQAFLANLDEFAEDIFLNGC
Sequence of rabbit C5 (rabbit) (P01031 whole entry): as above

Ac-KVERFD[NMeD][Tle]Y[Trp(7-aza)]EYP[Chg]K([PEG24′-γGlu-Palmitoyl])-OH (lactam 1-6) [R5000]
IC50 of inhibition of hERG potassium channel current (parallel patch-clamp, HEK293 cells) [1]: > 300 µM
IC50 of inhibition of red blood cell hemolysis, rabbit serum/plasma [2]: > 67 µM
IC50 of inhibition of red blood cell hemolysis, dog serum/plasma [3]: > 4.7 µM
IC50 of inhibition of red blood cell hemolysis, human serum/plasma [4]: 0.0066 µM
